Strand notation (5' to 3'): a small letter for the sugar, then the base; units joined by * are phosphorothioate-linked, units joined directly phosphodiester-linked; [ ] holds rarer units or linkages, { } end groups; capitals alone tell only the bases. m = 2'-O-methyl; r = 2'-OH (RNA)
Tested on: mouse TTR
Test: Serum mouse TTR (ELISA) after LNP dosing of mice with murine TTR
Type: in vivo
Conditions: wild type CD-1 mice; LNP 45:44:9:2, N:P 6; 1, 0.3, 0.1, 0.03, 0.01 mg/kg
Experimental: Unless otherwise noted, CD-1 female mice, ranging from 6-10 weeks of age were used in each study. Animals were weighed and grouped according to body weight for preparing dosing solutions based on group average weight. LNPs were dosed via the lateral tail vein in a volume of 0.2 mL per animal (approximately 10 mL per kilogram body weight). […] Body weight was measured at twenty-four hours post-administration, and animals were euthanized at various time points by exsanguination via cardiac puncture under isoflourane anesthesia. Blood was collected into serum separator tubes or into tubes containing buffered sodium citrate for plasma as described herein. […]
Blood was collected and the serum was isolated as indicated. The total mouse TTR serum levels were determined using a Mouse Prealbumin (Transthyretin) ELISA Kit (Aviva Systems Biology, Cat. OKIA00111); rat TTR serum levels were measured using a rat specific ELISA kit (Aviva Systems Biology catalog number OKIA00159); human TTR serum levels were measured using a human specific ELISA kit (Aviva Systems Biology catalog number OKIA00081); each according to manufacture's protocol. […] The absorbance of the contents was measured on the Spectramax M5 plate reader with analysis using SoftmaxPro version 7.0 software. […]

B1: G000502: TTR Cyno specific sgRNA modified sequence, SEQ ID NO: 114; guide sequence of CR000689; cross homologous between mouse and cyno (nucleic acid)
guide: mA*mC*mA*rCrArArArUrArCrCrArGrUrCrCrArGrCrGrGrUrUrUrUrArGrAmGmCmUmAmGmAmAmAmUmAmGmCrArArGrUrUrArArArArUrArArGrGrCrUrArGrUrCrCrGrUrUrArUrCrAmAmCmUmUmGmAmAmAmAmAmGmUmGmGmCmAmCmCmGmAmGmUmCmGmGmUmGmCmU*mU*mU*mU
In the case of B1, the “serum mouse TTR levels, dose response” value is reported as “dose response”.
